What all share (assay): LC-MS of MeFox formation, initial rates, Michaelis-Menten fit
What all share (conditions): 50 mM sodium phosphate pH 7.0, 10 mM beta-mercaptoethanol, 30 °C, 0.5 µM protein

Series [1] addresses T1, SbGFT (Sorghum bicolor, UniProt C5WU82).
T1 construct: gene SORBI_3001G181300; synthetic gene, C-terminal 6xHis tag, E. coli BL21(DE3); monomer; 317 residues (apo crystal: A6-D317, C260S/C314S)
T1 sequence (C5WU82 1-317): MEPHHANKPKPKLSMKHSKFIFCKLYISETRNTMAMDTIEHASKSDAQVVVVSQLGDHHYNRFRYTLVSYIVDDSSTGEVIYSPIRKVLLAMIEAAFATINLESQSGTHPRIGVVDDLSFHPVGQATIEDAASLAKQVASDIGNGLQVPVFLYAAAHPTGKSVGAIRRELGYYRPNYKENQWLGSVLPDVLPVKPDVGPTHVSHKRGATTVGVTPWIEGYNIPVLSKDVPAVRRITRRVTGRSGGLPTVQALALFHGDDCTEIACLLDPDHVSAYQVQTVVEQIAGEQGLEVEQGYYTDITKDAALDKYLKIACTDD
The series is classed as biochemical.

Substrate in series [2]: CN1c2c(nc(N)[nH]c2=O)NC[C@@H]1CNc1ccc(C(=O)N[C@@H](CCC(=O)O)C(=O)O)cc1
It counts as biochemical, Zea mays.

Substrate in series [3]: CN1c2c(nc(N)[nH]c2=O)NC[C@@H]1CNc1ccc(C(=O)N[C@@H](CCC(=O)O)C(=O)O)cc1
It counts as biochemical, Zea mays. The source says:
LC-MS of MeFox formation, initial rates, Michaelis-Menten fit on ZmGFT-Qi319 | reduced approximately by sixfold for the mutant ZmGFT‐Qi319^G232N
This is another data set of the same source.

Where a chain is given by its changes, count along the chain named. Names may count otherwise.

Take `CN1c2c(nc(N)[nH]c2=O)NC[C@@H]1CNc1ccc(C(=O)N[C@@H](CCC(=O)O)C(=O)O)cc1` [5-M-THF]: in series [1], the K m result was “Converting analysis of wild‐type SbGFT and its mutant SbGFT^G219N”.

B1: ZmGFT-Qi319 (Zea mays) (protein)
chain: MEPHHANKPKPRPKLSAKHSKFISCKLYISESRNATAVDAVERASKSDPQVVVVSQFGDHHYNRFRYTLVSYIVVDDGGGGGSSAAGEATVVVHSPIRKVLLAMIEAAFSSIDLESQSGAHPRMGVVDDLSFHPVGQATVEDAASLARQVASDIACIAAVPVFLYAAAHPAGKSVGAVRRELGYYRPNYRGNQWSGSVLPDVLPVKPDVGPAHVVSHKRGATTVGVTPWIEGYNVPVLCKDVATVRRITRGVTGRSGGLPTVQALALFHGDDCTEIACLLDPDHASAYQVQTVVEQIAGDQGLEVEQGYYTDITKDEALDKYLKIACADD
notes: natural allele; C-terminal 10xHis tag, modified pFastBac1, Sf-9 insect cells; monomer
A word on the Km: it is the concentration of substrate that gives half-maximal velocity. As usually defined, the kcat is the maximal rate divided by the concentration of active sites. One may read the kcat/Km as the turnover number divided by the Michaelis constant. In the case of B1, in series [2], the Km was found to be 153.1 ± 38.2 µM, the kcat was found to be 0.0317 ± 0.00167 s⁻¹ and the kcat/Km is 207 M⁻¹ s⁻¹.

B2: ZmGFT-Qi319 (Zea mays; G232N) (protein)
chain: B1 chain with G232N
notes: as for B1
With B2, in series [3], the Km stood at 2209.0 ± 1046.0 µM, the kcat is 0.075 ± 0.0533 s⁻¹ and the catalytic efficiency (kcat/Km) was 34 M⁻¹ s⁻¹.

B3: ZmGFT-B73 (Zea mays) (protein)
chain: MEPHHANKPRPKLSATKHSKFISCKLYISESRNATAVDAVERASKSDPQVVVVSQFGDHHYNRFRYTLVSYIVVVDGGGSSAAGEATVVHSPIRKVLLAMIEAAFSSIDLESQSGAHPRIGVVDDLSFHPVGQATIEDAASLARQVASDIACIAAVPVFLYAAAHPAGKSVGAVRRELGYYRPNYRGNQWSGSVLPNVLPVKPDVGPAHVVSHKRGATTVGVTPWIENYNVPVLCKDVATVRRITRGVTGRSGGLPTVQALALFHGDDCTEIACLLDPDHASAYQVQTVVEQIAGDQGLEVEQGYYTDITKDEALDKYLKIACADD
notes: C-terminal 10xHis tag, modified pFastBac1, Sf-9 insect cells; monomer; annotated 326 residues; Asn228
B3: in series [2], the Km amounted to 3108.0 ± 2675.5 µM, the kcat was 0.0783 ± 0.055 s⁻¹ and the specificity constant (kcat/Km) worked out at 25.2 M⁻¹ s⁻¹.

B4: ZmGFT-B73 (Zea mays; N228G) (protein)
chain: B3 chain with N228G
notes: as for B3
For B4, in series [2], the Km was found to be 888.0 ± 490.3 µM, the kcat is 0.09 ± 0.0233 s⁻¹ and the kcat/Km came to 101 M⁻¹ s⁻¹.

The record behind these values is publication PMC12622545, “An Allele of Glutamate Formiminotransferase Triggers 5‐Methyl‐Tetrahydrofolate‐to‐MeFox Conversion and Facilitates Folate Biofortification in Maize” (Advanced Science, 2025).
